Measured values reported in patent publication US20120107364A1 (ACTGEN, published 2012).

Legend:
Experiment in all cases: flow cytometry on Ba/F3 cells expressing the truncated PODXL2
[1] = biological target: T1, PODXL2, positions 1 to 310 (human, UniProt O00592 23-342)
T1 construct: One of the 14 C-terminal truncations; Expressed on Ba/F3 cells; also called R310
T1 sequence: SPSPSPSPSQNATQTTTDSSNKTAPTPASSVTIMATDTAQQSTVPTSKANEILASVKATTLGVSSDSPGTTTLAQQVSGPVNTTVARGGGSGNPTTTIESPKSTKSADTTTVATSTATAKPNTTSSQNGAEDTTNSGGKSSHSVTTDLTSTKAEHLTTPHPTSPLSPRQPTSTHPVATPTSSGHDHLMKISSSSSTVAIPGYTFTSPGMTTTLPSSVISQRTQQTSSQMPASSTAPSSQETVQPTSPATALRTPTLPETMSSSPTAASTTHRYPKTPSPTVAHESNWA
Procedure: (§1) To each sample of the cell suspension, 50 μl of the hybridoma culture supernatant or 2-μg/ml of the purified antibody (hereinafter, referred to as an “antibody solution”) was added, and the antibody was reacted with the cells. As an isotype control of the antibody solution, a wash buffer containing 2 μg/ml of each of mouse IgG1 (BioLegend, 400412), mouse IgG2a (BioLegend, 400224), and mouse IgG2b (BioLegend, 400324) was used. The hybridoma culture supernatant was reacted with the target cells at room temperature for 30 minutes, followed by centrifugation at 700×g for 2 minutes. Then, a culture supernatant was removed. Further, 100 μl of a wash buffer was added, followed by centrifugation at 700×g for 2 minutes again. A supernatant was removed. Then, the cells were washed.
(§2) Next, to the cell pellets after the washing, 50 μl of Goat anti-mouse IgG, F(ab′) 2-PE (PE=phycoerythrin, Beckman Coulter, IM0855) diluted 200-fold with a wash buffer was added as a secondary antibody for detection, and reacted in the dark at room temperature for 30 minutes. The reaction was followed by centrifugation at 700×g for 2 minutes. A supernatant was removed. Further, 100 μl of a wash buffer was added, followed by centrifugation at 700×g for 2 minutes again. A supernatant was removed. Then, the cells were washed. Thereafter, the cells were suspended in an appropriate amount of a wash buffer. The reactivity between the antibody and the cells was analyzed by a flow cytometer (Beckman Coulter, FC500 MPL).
(§3) Thereafter, by the same method as in Example 1 (4) (the virus packaging and thereafter), Ba/F3 cells containing the PODXL2 gene sequences of various chain lengths were prepared. Further, by the same method as in Example 4, the reactivity between the ACT36-27_{—}5D1 antibody and the Ba/F3 cells expressing the PODXL2 molecules of various chain lengths was analyzed by a flow cytometer (FIG. 10).

[2] = biological target: T2, PODXL2, positions 1 to 330 (human, UniProt O00592 23-362)
T2 construct: One of the 14 C-terminal truncations; Expressed on Ba/F3 cells; also called R330
T2 sequence: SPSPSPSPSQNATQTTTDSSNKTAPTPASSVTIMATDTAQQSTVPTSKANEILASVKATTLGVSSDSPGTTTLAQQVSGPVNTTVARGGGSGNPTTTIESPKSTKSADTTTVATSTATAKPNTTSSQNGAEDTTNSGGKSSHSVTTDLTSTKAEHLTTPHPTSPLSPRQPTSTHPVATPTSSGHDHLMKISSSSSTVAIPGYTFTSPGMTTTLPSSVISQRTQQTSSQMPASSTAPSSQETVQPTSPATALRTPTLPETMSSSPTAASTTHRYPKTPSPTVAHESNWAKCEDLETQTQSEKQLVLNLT
Procedure: as §1, §2, §3

[3] = biological target: T3, PODXL2, positions 1 to 380 (human, UniProt O00592 23-412)
T3 construct: One of the 14 C-terminal truncations; Expressed on Ba/F3 cells; also called R380
T3 sequence: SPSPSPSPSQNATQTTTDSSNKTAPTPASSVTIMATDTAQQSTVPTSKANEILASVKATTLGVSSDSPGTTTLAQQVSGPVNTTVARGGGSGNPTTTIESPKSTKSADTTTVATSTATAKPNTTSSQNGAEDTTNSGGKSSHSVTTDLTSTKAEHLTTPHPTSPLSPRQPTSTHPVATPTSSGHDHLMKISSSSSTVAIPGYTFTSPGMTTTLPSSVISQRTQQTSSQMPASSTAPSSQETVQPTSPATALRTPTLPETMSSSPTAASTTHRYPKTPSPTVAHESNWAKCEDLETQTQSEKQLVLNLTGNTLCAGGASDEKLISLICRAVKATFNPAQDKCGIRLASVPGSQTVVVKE
Procedure: as §1, §2, §3

[4] = biological target: T4, PODXL2, positions 1 to 390 (human, UniProt O00592 23-422)
T4 construct: One of the 14 C-terminal truncations in 10-residue steps; Expressed on Ba/F3 cells; also called R390
T4 sequence: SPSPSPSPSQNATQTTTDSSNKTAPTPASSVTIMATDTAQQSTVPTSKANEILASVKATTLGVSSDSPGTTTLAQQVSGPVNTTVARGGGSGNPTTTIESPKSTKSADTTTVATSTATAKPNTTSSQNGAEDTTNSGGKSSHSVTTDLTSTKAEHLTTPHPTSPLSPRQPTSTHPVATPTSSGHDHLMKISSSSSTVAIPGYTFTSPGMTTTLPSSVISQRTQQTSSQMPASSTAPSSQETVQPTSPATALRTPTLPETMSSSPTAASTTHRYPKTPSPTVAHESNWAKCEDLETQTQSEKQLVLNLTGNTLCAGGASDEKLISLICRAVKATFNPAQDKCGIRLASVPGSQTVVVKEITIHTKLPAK
Procedure: as §1, §2, §3

[5] = biological target: T5, PODXL2, positions 1 to 340 (human, UniProt O00592 23-372)
T5 construct: One of the 14 C-terminal truncations; Expressed on Ba/F3 cells; also called R340
T5 sequence: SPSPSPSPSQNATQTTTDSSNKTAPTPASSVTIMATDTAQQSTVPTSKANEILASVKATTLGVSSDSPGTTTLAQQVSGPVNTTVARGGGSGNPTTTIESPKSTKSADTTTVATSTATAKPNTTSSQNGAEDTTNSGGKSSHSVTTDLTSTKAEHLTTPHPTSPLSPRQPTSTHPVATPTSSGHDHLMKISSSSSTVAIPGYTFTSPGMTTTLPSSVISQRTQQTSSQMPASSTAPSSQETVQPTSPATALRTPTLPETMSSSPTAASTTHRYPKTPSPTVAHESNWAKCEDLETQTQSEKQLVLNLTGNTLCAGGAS
Procedure: as §1, §2, §3

Measured: binding result

B1: ACT36-27-5D1 antibody (antibody, V domains shown)
VH: EVQLQQSGPELVKPGASVKMSCKASGYTFTSYVMHWVKQKPGQGLEWIGYIHPYNDGIKYNEKFKGKATLTSDKSSSTAYMDLSSLTSEDSAVYYCARSWDWYFDVWAAGTTVTVSS
VL: QIVLTQSPAIMSASPGEKVSMTCSASSSVSYMHWYQQKSGTSPKRWIYDTSKLASGVPARFSGSGSGTSYSLTISSMEAEDAATYYCLQWSSNPPTFGGGTKLE
notes: also called anti-PODXL2 antibody ACT36-27-5D1; anti-ACT36-27-5D1 monoclonal antibody
no binding: all assays above
